Test results taken from patent publication US20190330277A1.

Legend:
Experiment in all cases: ELISA, variant from culture supernatant on Ni-NTA plate [continued]
391-2-DS-Cav1-BZGJ9_gyc3 = target: 391-2-DS-Cav1-BZGJ9_gyc3
[1] = target: RB94_sc9-10 DS-CAV1 L373R
391-2-DS-Cav1-BZGJ9_gyc6 = target: 391-2-DS-Cav1-BZGJ9_gyc6

With motavizumab (antibody) the ELISA binding value (391-2-DS-Cav1-BZGJ9_gyc3) was 0.599, the ELISA binding value [1] was 0.689 and the ELISA binding value (391-2-DS-Cav1-BZGJ9_gyc6) was 1.05.
